The values below are quoted from earlier work in patent US9919022B2, “Use of angiotensin II (AII) receptor agonists to prevent or reduce hemodialysis-associated skeletal muscle cramps” (priority 2015, dated 2018).

Where two headings read alike, the source gives them in different places.

On to `CC[C@H](C)[C@H](NC(=O)[C@H](Cc1ccc(O)cc1)NC(=O)[C@@H](N)C(C)C)C(=O)N[C@@H](Cc1cnc[nH]1)C(=O)N1CCC[C@H]1C(=O)N[C@@H](Cc1ccccc1)C(=O)O` [angiotensin IV, Val-Tyr-Ile-His-Pro-Phe], for which the serum half-lives entry (serum) was “less than one”.

On to “H-Asp-Arg-Val-Tyr-Ile-His-Pro-Phe-OH (H-DRVYIHPF-OH; listed as Homo sapiens) [angiotensin II]”, for which the terminal serum half-life entry (serum) is “less than 30 minutes”.

In the case of “Arg-Val-Tyr-Ile-His-Pro-Phe [Angiotensin III]”, the serum half-lives entry (in vivo) is “less than one”.
